Assay [1] concerns the target T1, human CD40 (human, UniProt P25942 21-193).
T1 construct: Recombinant protein coated for ELISA; The primary screen used 'soluble, His-tagged human CD40 (full-length and IgC2)'; also called huCD40; hCD40; not shown: His tag
Put plainly: ELISA of subcloned hybridoma supernatants on hCD40, anti-mouse IgG-HRP detection. As for the experimental part: Next, the hybridomas were selected for subcloning to identify monoclonal antibodies against CD40. Briefly, cells were plated at a 1 cell per well density in 384-well plates, confirmed by microscopy, and expanded. After expansion, supernatants were screened by ELISA against hCD40. The mAbs were detected using anti-mouse IgG-conjugated to HRP.

The next assay has as its target T2, mouse CD40 (mouse, UniProt P27512 20-193, limits assumed).
T2 construct: Recombinant mouse CD40 protein for ELISA; The construct and tag are not described; also called mCD40
T2 sequence (looked up): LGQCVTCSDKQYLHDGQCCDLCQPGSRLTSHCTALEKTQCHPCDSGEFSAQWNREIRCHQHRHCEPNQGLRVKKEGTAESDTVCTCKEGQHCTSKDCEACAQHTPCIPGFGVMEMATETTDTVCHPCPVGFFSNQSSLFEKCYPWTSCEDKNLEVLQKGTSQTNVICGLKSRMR
Put plainly: ELISA on recombinant mouse CD40 protein, hybridoma supernatant. (In general: An ELISA detects its analyte on a solid surface through an enzyme-linked reagent.)

Assay [2] has as its target T1, human CD40. As to the kind of experiment: ELISA on recombinant human CD40 protein, hybridoma supernatant.

T1 sequence (P25942 21-193 limits assumed): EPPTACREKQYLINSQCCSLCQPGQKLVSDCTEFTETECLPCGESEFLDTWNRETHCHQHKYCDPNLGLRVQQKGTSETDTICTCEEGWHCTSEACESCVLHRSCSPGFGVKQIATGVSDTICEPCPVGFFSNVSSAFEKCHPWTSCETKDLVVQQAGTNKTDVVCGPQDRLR

B1: anti-CD40 antibody 41-I22 (antibody, V domains shown)
VH: EVQLQQSGAVLVKPGASVRLSCTASGFNIKDTYIHWVKQRPEQGLEWIGKIDPANGNTKFDPKFQGKATIAADTSSNTAYLQLSSLTSEDTAVYYCARDYYGTIFPYWYFDVWGAGTTVTVSS
VL: QIVLTQSPAIMSASPGEKVTITCSASSSVSYMHWFQQKPGTSPKFWIYITSNLASGVPARFSGSGSGTSYSLTISRMEAEDAATYYCQQRSSYPLTFGAGTKLELK
notes: Mouse hybridoma monoclonal antibody tested as hybridoma supernatant and detected with anti-mouse IgG-HRP
B1: the binding result in the assay with human CD40 [1] was “binds”; in the assay with mouse CD40, “no binding”.

B2: anti-CD40 antibody 26-I22 (antibody, V domains shown)
VH: QVQLQQPGAELVKPGASVKLSCKASGYTFINYWINWMRQRPGQGLEWIGNIYPGSSSTTYNEKFKSKAALTVDTSSSTAYMQLSSLTSDDSAVYFCARSVGYWYFDVWGAGTTVTVSS
VL: DIVMSQSPSSLAVSVGEKVTLSCKSSQSLFFSGNQKNFLAWYQQKPGQSPNLLIFWASTRESGVPDRFTGSGSGTDFTLTISSVKAEDLAVYYCQQYYSYPFTFGSGTKLEIK
notes: as for B1
B2: the binding result in the assay with human CD40 [1] is “binds”.

B3: anti-CD40 antibody 12-O17 (antibody, V domains shown)
VH: QVQLQQSGAELMKPGASVKISCKATGYTFSTYWIEWVKQRPGHGLEWIGEILPGSGSTNYNENFKGKATFTADTSSNTAYMQLSSLTSEDSAVYFCARGGLYYYGGAMDYWGQGTSVTVSS
VL: DIVMSQSPSSLAVSVGEKVTMSCKSSQSLLYSGNQKNYLAWYQQKPGQSPKLLIYWASIRESGVPDRFTGSGSGTDFTLTISSVKAEDLAVYYCQQYYSYPYTFGGGTKVEIK
notes: as for B1
On to B3, for which the binding result in the assay with human CD40 [1] is on record as “binds”; with mouse CD40, “no binding”.

B4: anti-CD40 antibody 39-K17 (antibody, V domains shown)
VH: QVQLQQPGAELVKPGASVKLSCTASGYIFTNYWMNWVKQRPGRGLEWIGRIHPSDSESLYNQKFKSKAILTVDKSSSTAYIQLSSLTSEDSAVYYCARSPLTKVVTTDFWGQGTTLTVSS
VL: EIVLTQSPAIMPASPGEKVTMTCSASSSVNYMHWYQQKSGTSPKRWIYDTSKLASGVPVRFSGSGSGTSYSLTISSMEAEDAATYYCQQWSSNPLTFGGGTKLEIK
notes: as for B1
B4: the binding result is “binds” with human CD40 [1] and “no binding” with mouse CD40.

B5: anti-CD40 antibody 41-J9 (antibody, V domains shown)
VH: DVQLQESGPDLVKPSQSLSLTCTVTGYSITSDYSWHWIRQFPGNKLEWMGYIYYSGSTNYNPSLKSRISITRDTSKNQFFLQLNSVTSEDTATYYCARFYYGWSYFDYWGQGTSLTVSS
VL: EIVLTQSPAIMPASPGEKVTMTCSASSSVNYMHWYQQKSGTSPKRWIYDTSKLASGVPVRFSGSGSGTSYSLTISSMEAEDAATYYCQQWSSNPLTFGGGTKLEIK
notes: as for B1
For the molecule B5, the binding result is given as “binds” with human CD40 [1] and “no binding” with mouse CD40.

B6: anti-CD40 antibody 30-P15 (antibody, V domains shown)
VH: EVMLVESGGALVKPGGSLKLSCAASGFTFSNYAMSWVRQTPEKRLEWVATIGTSGSYTYYSDSVKGRFTISRDNARNTLYLQMTSLRSEDTAMYYCARRGYYNPTHAMDYWGQGTSVTVSS
VL: QAVVTQESALTTSPGETVTLTCRSSTGAVTTSNYANWVQEKPDHLFTGLIGGTNNRAPGVPARFSGSLIGDKAALTITGAQTEDEAIYFCALWYSNHLVFGGGTKLTVL
notes: as for B1
In the case of B6, the binding result in the assay with human CD40 [1] is “binds”; with mouse CD40, “no binding”.

B7: anti-CD40 antibody 41-E17 (antibody, V domains shown)
VH: DVQLVESGGGLVQPGGSRKLSCAASGFTFSTFGMHWVRQAPEKGLEWVAYISGGSSTIYYADTVKGRFTISRDNPKNTLFLQMTSLRSEDTAMYYCVRPYGSVHYAMDYWGQGTSVTVSS
VL: DIQMTQTTSSLSASLGDRVTISCRASQDINNYLNWYQQKPDGTVKLLIYYTSRFHSGVPSRFSGSGSGTDYSLTISNLEQEDIATYFCQQGNTLPWTFGGGTKLDIK
notes: as for B1
In the case of B7, the binding result with human CD40 [1] is reported as “binds”; with mouse CD40, “no binding”.

B8: anti-CD40 antibody 10-B8 (antibody, V domains shown)
VH: QVQLQQPGSVLVRPGASVKLSCKASGFTFATSWMHWAKERPGQGLEWIGQIHPNSGNTNYNEKFKGKATLTVDTSSSTAYVDLSSLTSEDSAVYYCARGADYAMDYWGQGTSVTVSS
VL: DVLMTQTPLSLPVSLGDQASISCRSSQSIVHSNGNTYLEWYLQKPGQSPKLLIYIVSNRFSGVPDRFSGSGSGTDFTLKISRVEAEDLGVYYCFQGSHVPWTFGGGTKLEIK
notes: as for B1
For B8, the binding result with human CD40 [2] was “binds”.

B9: anti-CD40 antibody 10-K9 (antibody, V domains shown)
VH: EVQLVESGGDLVKPGGSLKLSCAASGFTFSSYGMSWVRQTPDKRLEWVATISSDGSHTYYPDSVKGRFTISRDIAKNTLYLQMSSLKSEDTAMYYCVRQGRYVPSFDVWGAGTTVTVSS
VL: DIVLTQSPATLSVTPGDSVSLSCRASQSIRNNLHWYQQKSHESPRLLIKDASQSISGTPSRFSGSGSGTDFTLSINSVETEDFGMYFCHQTNNWPFTFGSGTKLEIK
notes: as for B1
Consider B9, for which the binding result was “binds” with human CD40 [2] and “no binding” with mouse CD40.

B10: anti-CD40 antibody 9-P1 (antibody, V domains shown)
VH: QVQLQQSGAELMKPGASVKISCKATGYTFSTYWIEWVKQRPGHGLEWIGEILPGSGSTNYNEKFRGKATFTADTSSNTAYMQLSSLTSEDSAVYYCARSYYTYDQGSWLAYWGQGTLVTVSA
VL: DIVMSQSPSSLAVSVGEKVTMTCKSSQSLLYSGNQKNYLAWYQQKPGQSPKLLINWASTRESGVPDRLTGSGSGTDFSLTISSVKAEDLAVYYCQQYYSYPYTFGGGTKLEIK
notes: as for B1
In the case of B10, the binding result with human CD40 [1] is “binds”.
